Test results published in the supplement of paper PMC12764529.
± gives the half width of the 95% confidence interval.

Legend:
[1] = folding stability dG unfold from chymotrypsin proteolysis; higher = more stable
Summary of the method: (§1)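 Unfolding free energy was derived, per protease or combined, against a sequence-predicted unfolded-state K50 and a shared folded-state K50, starting from K50 inferred by Bayesian fitting of sequencing counts. Digestion with trypsin and chymotrypsin was carried out on designed mini-proteins under 80 residues without cysteine in a PA-tagged cDNA display construct. Only designs with AlphaFold2 dimer inter-PAE above 15 were kept.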

[2] = folding stability dG unfold from trypsin proteolysis; higher = more stable
Summary of the method: as §1

[3] = folding stability dG unfold (combined trypsin and chymotrypsin); higher = more stable
Summary of the method: as §1

Sequence	folding stability dG unfold [1] [kcal/mol]	folding stability dG unfold [2] [kcal/mol]	folding stability dG unfold [3] [kcal/mol]
SMKTLIVEGMTPEEIRALAEEAAKKGEEVEIEIVVKDNEEIKEALEEAGVEVEEVEDPETKEKVLKVTVKSA [r9_759_TrROS_Hall]	0.412 ± 0.072	0.254 ± 0.044	0.327 ± 0.14
SAGDEALLERIRARAEAEAKAAGPDPTPLDYRVEVEPVEIDEETGTVKVRVTITAPDREVEREVTVPLVSAG [r5_53_JUSTAS]	-0.113 ± 0.096	0.315 ± 0.051	0.0838 ± 0.088
MTPTFTVTELPPDLLRVEYTDPVTGKRATFTLPVSPVGDGVRLSAEVDAEGLPEEVAAAIRDAALAALAAAS [r1_403_JUSTAS]	2.3 ± 0.023	1.48 ± 0.021	2.06 ± 0.042
SAGGITIRGMPWEWAEEIAKTLAQEGYRLKDVEVEEDPPDGYYSVTVQQRDPETGKPKKPVTISIPPSAGGS [r16_750_TrROS]	0.0769 ± 0.44	0.594 ± 0.13	0.515 ± 0.43
SAGDMIKIPFNFKDPNGAKPKELEVMISPDPGVITAMFKYKHNNEPKYYMISIPIDPGNGKIEIEIQPMSAG [r5_136_TrROS]	1.65 ± 0.17	1.2 ± 0.058	1.46 ± 0.12
SAGGSAGGSAGGLEIELPNARIRIEELEGEPRRIRVRVEFFPPDGGRLSAEAEFDILPDLSAGGSAGGSAGG [r17_184_TrMRF]	2.5 ± 0.08	2.66 ± 0.056	2.57 ± 0.092
SAGMLTYRFTVPAEEAEEAAEELAETLRRELGLPEEVKVEVKVVEYDPETGLVTVEAVVYRPLPEGVEPSAG [r5_537_TrMRF]	4.44 ± 0.11	4.21 ± 0.16	4.5 ± 0.14
SAGGSAGGSAGGKKKKVKKKVTITIKLSAEEVAKLLKDLYPEKNIKIEENEDGSLSVTFTSAGGSAGGSAGG [r7_670_TrROS_Hall]	2.39 ± 0.041	2 ± 0.098	2.26 ± 0.11
SMTVSNPRGKTVTVTVTVTVDPNKKSVTVPVTIRTAGEELTFTFTVPKGVNKPVTFSLTVPLPPGSSVISSA [r9_973_JUSTAS]	4.02 ± 0.059	3 ± 0.093	3.63 ± 0.089
SAVEIEFWFPGGMSVEEFVNEFSKILPGLRDVDIGVEPYPETDMWKVTATIRIVPPPSPEDQEEMQKNKSAG [r14_645_TrROS]	1.7 ± 0.051	1.38 ± 0.07	1.62 ± 0.1
SAGGSAGGSAGMKEGEIVEVTVPIPENGEEIKVKVVAPPSLTEEEARALAEEKAKEIYEKSAGGSAGGSAGG [r11_355_JUSTAS]	0.99 ± 0.04	0.0651 ± 0.062	0.595 ± 0.077
SAGGKTLYVVRITRRVRVDGKLYEVTLTLVAESEEEAEEALRKLAEELEALFPDEIRIEVEKVELPPSAGGS [r16_475_TrROS_Hall]	5.7 ± 0.24	3.93 ± 0.13	5.5 ± 0.25
SAGGSAEETIEIEIPLEDLKPRKDGKLTEEEIKERLRKLIEELTGKKPKEITVERDENGTLRITIRSAGGSA [r15_562_TrROS_Hall]	2.54 ± 0.18	1.46 ± 0.13	2.2 ± 0.23
SAGGSAGGSAGGSPLLDFPEPVTTLEETTVTVYFDTNDFTVTLNVTTEVTGDVKRPTVVGSAGGSAGGSAGG [r7_735_JUSTAS]	0.464 ± 0.051	1.1 ± 0.044	0.788 ± 0.11
SAGGSAKFKLEATPLEDGTLIIPIEIEVTVEKPFPDPNGIPKIKPVKKKFRFLIIKDGDEIKIFLGSAGGSA [r15_883_TrMRF]	2.66 ± 0.097	1.59 ± 0.089	2.31 ± 0.23
SAGGSAGGSALAEELAAKYPGLQVEVTRVEVEREVTDADGRKRTERVERLEIRVVKPGEELSAGGSAGGSAG [r3_358_TrROS_Hall]	-0.0574 ± 0.06	0.5 ± 0.034	0.164 ± 0.18
SAGGSAGGSAGMVDKKTGKPVEKVKVIIRNKNGKKEEKEVTLEELKELAENLPYEIEFEKSAGGSAGGSAGG [r17_125_TrROS_Hall]	0.82 ± 0.1	1.16 ± 0.079	1 ± 0.25
SAGGSAGGSAGGKPVIYRIEVRLPDSPEREIFEIEVPPDRPEVAEELAKLLGPNVKMEPLSAGGSAGGSAGG [r11_250_TrMRF]	-0.577 ± 0.49	-0.166 ± 0.1	-0.387 ± 0.38
SAGMLEISSDVLKALGIPVGATAEEVKERIQRRLEELGFEVEIPSVVIEELDPETGRVGVRIDLDLRPPSAG [r5_23_TrMRF]	2.23 ± 0.35	3.05 ± 0.18	2.5 ± 0.23
SAGMGATLVSESEEEIDSSGVRKLTYRSPGSLLVETLYPDGTVPVYVIDPSTGKVVEERVFHVPPDVPLSAG [r14_676_JUSTAS]	0.166 ± 0.17	0.179 ± 0.13	0.204 ± 0.13
SAGGSGKEFEVEKAVFIPLPDDRKLIIVKTKTSIQIVEYNGEEWKLVATYPYKDVPKNPRELLKKKSAGGSA [r2_133_TrMRF]	1.13 ± 0.14	0.454 ± 0.22	0.929 ± 0.22
